Paper PMC9482650, “Quantitative fragmentomics allow affinity mapping of interactomes” (Nature Communications, 2022)

Experiments:
Test in all cases: holdup assay
Parameters in all cases: key: below the threshold = too weak to quantify, mostly under pKd 3.1 to 4
[1] = target: T1, SNTB1, Q13884
T1 sequence (Q13884 107-205, limits assumed, looked up): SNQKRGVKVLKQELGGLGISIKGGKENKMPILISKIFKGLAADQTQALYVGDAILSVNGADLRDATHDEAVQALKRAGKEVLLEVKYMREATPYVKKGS

[2] = target: T2, APBA1_2, Q02410
T2 sequence (Q02410 742-832, limits assumed, looked up): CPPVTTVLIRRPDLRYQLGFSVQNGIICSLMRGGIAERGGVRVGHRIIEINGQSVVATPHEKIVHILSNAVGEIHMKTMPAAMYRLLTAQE

[3] = target: T3, DLG3_2, Q92796
T3 sequence (Q92796 221-321, limits assumed, looked up): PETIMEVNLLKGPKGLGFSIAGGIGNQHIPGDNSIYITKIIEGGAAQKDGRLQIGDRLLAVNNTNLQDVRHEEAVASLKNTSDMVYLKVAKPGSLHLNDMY

[4] = target: LAP2, Q96RT1
[5] = target: T4, TX1BP3, O14907
T4 sequence (O14907 10-122, limits assumed, looked up): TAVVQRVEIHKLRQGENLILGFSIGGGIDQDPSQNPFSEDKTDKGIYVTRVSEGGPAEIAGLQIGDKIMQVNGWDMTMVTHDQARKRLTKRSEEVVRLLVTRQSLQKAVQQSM

[6] = target: DLG2_2, Q15700
[7] = target: T5, APBA1_1, Q02410
T5 sequence (Q02410 651-752, limits assumed, looked up): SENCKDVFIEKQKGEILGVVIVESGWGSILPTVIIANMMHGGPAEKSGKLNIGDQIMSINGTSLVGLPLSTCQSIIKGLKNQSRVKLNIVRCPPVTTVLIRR

[8] = target: T6, MPP2, Q14168
T6 sequence (Q14168 180-250, limits assumed, looked up): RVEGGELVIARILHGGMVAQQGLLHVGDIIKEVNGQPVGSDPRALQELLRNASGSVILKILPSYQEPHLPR

[9] = target: T7, GRIP1_2, Q9Y3R0
T7 sequence (Q9Y3R0 145-248, limits assumed, looked up): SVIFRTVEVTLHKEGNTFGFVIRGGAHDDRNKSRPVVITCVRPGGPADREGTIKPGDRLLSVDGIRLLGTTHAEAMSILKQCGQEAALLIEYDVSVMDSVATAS

[10] = target: T8, LNX2_2, Q8N448
T8 sequence (Q8N448 334-432, limits assumed, looked up): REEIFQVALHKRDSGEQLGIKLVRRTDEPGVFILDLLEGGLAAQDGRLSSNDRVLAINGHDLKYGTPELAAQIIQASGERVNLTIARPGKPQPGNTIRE

[11] = target: MAGI3_2, Q5TCQ9
[12] = target: TJP2_1, Q9UDY2
[13] = target: ARHGEF12, Q9NZN5-2
[14] = target: T9, RADIL, Q96JH8
T9 sequence (Q96JH8 971-1071, limits assumed, looked up): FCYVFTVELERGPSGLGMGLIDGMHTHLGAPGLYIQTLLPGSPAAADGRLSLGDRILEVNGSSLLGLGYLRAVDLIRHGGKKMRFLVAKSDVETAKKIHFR

[15] = target: MAGI2_4, Q86UL8
[16] = target: PDZRN4_1, Q6ZMN7
[17] = target: CASK, O14936
[18] = target: Inadl_10, Q8NI35
[19] = target: T10, DLG3_1, Q92796
T10 sequence (Q92796 125-227, limits assumed, looked up): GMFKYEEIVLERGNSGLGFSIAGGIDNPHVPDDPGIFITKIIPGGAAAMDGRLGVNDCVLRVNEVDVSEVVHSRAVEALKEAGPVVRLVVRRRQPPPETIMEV

[20] = target: TJP1_2, Q07157
[21] = target: T11, MPDZ_5, O75970
T11 sequence (O75970 695-796, limits assumed, looked up): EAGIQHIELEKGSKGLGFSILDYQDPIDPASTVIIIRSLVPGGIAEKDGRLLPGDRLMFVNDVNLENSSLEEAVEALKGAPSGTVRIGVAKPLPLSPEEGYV

[22] = target: LNX1_2, Q8TBB1
[23] = target: PICK1, Q9NRD5
[24] = target: DLG4_3, P78352
[25] = target: DLG1_2, Q12959
[26] = target: T12, APBA3_1, O96018
T12 sequence (O96018 389-490, limits assumed, looked up): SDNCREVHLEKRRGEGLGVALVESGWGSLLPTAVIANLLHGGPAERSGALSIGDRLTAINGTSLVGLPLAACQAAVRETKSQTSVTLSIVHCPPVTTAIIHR

[27] = plain residues with an end cap or a label only (N-terminal biotin on a linker: ado-ado)
[28] = modified: phospho on T at position -2 from the C-terminal residue

Chain of CASK, O14936 (O14936 487-570): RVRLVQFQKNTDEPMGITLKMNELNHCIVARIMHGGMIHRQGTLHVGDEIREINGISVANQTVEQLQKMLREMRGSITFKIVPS
Chain of LNX1_2, Q8TBB1 (Q8TBB1 371-470): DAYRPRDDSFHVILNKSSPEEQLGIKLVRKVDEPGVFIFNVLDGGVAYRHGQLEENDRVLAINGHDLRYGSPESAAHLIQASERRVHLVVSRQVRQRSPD
Chain of DLG4_3, P78352 (P78352 306-403): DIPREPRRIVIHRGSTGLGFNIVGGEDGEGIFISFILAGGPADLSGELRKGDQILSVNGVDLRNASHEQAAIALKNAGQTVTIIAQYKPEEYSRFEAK
Chain of TJP2_1, Q9UDY2 (Q9UDY2 24-128): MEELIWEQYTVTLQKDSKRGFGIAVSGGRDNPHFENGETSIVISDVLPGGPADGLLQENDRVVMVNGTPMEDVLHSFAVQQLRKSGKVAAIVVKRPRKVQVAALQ
Chain of MAGI3_2, Q5TCQ9 (Q5TCQ9 398-503): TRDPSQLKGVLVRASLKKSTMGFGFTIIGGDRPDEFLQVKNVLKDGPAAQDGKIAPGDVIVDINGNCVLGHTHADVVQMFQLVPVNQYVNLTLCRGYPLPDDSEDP
Chain of MAGI2_4, Q86UL8 (Q86UL8 772-865): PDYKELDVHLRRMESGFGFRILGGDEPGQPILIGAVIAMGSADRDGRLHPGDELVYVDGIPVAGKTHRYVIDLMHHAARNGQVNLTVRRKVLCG
Chain of LAP2, Q96RT1 (Q96RT1 other isoform, or with tags, fused parts or gaps): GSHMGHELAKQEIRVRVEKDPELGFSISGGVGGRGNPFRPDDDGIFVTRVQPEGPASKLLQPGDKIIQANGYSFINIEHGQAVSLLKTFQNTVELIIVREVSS
Chain of PICK1, Q9NRD5 (Q9NRD5 17-115): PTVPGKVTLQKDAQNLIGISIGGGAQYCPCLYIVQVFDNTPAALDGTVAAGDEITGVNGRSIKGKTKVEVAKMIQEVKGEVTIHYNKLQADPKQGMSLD
Chain of ARHGEF12, Q9NZN5-2 (Q9NZN5 other isoform, or with tags, fused parts or gaps): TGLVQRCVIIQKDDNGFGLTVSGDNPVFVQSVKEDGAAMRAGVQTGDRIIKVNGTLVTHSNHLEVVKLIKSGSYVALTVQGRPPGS
Chain of PDZRN4_1, Q6ZMN7 (Q6ZMN7 213-318): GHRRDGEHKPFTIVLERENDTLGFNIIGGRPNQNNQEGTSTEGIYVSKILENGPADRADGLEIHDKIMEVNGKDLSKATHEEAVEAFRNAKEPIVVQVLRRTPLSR
Chain of DLG2_2, Q15700 (Q15700 189-283): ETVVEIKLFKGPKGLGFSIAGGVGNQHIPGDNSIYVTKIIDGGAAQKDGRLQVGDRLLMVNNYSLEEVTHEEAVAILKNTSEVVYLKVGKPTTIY
Chain of DLG1_2, Q12959 (Q12959 314-412): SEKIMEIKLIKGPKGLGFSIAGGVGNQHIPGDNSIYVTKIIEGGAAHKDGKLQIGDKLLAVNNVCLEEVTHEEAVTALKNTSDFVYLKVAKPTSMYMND
Chain of Inadl_10, Q8NI35 (Q8NI35 1673-1763): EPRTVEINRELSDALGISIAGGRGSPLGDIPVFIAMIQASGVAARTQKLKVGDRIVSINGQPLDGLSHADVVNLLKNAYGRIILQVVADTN
Chain of TJP1_2, Q07157 (Q07157 181-274): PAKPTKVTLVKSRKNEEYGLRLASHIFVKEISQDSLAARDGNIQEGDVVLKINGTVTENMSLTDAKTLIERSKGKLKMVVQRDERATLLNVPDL

SAGADSETHC [SLCO1B1, Q9Y6L6]
pKd [1, 27]: 3.87
pKd [2, 27]: below the threshold
pKd [3, 27]: below the threshold
pKd [4, 27]: below the threshold
pKd [5, 27]: below the threshold
pKd [6, 27]: below the threshold
pKd [7, 27]: below the threshold
pKd [8, 27]: below the threshold
pKd [9, 27]: below the threshold
pKd [10, 27]: below the threshold
pKd [11, 27]: below the threshold
pKd [12, 27]: below the threshold
pKd [13, 27]: below the threshold
pKd [14, 27]: below the threshold
pKd [15, 27]: below the threshold
pKd [16, 27]: below the threshold
pKd [17, 27]: below the threshold
pKd [18, 27]: below the threshold
pKd [19, 27]: below the threshold
pKd [20, 27]: below the threshold
pKd [21, 27]: below the threshold
pKd [22, 27]: below the threshold
pKd [23, 27]: below the threshold
pKd [24, 27]: below the threshold
pKd [25, 27]: below the threshold
pKd [26, 27]: below the threshold

SRSRRRETAL [HPV33-E6_-2P, P06427]
pKd [1, 28]: below the threshold
pKd [2, 28]: below the threshold
pKd [3, 28]: below the threshold
pKd [4, 28]: below the threshold
pKd [5, 28]: below the threshold
pKd [6, 28]: below the threshold
pKd [7, 28]: below the threshold
pKd [8, 28]: below the threshold
pKd [9, 28]: below the threshold
pKd [10, 28]: below the threshold
pKd [11, 28]: below the threshold
pKd [12, 28]: below the threshold
pKd [13, 28]: below the threshold
pKd [14, 28]: below the threshold
pKd [15, 28]: below the threshold
pKd [16, 28]: below the threshold
pKd [17, 28]: below the threshold
pKd [18, 28]: below the threshold
pKd [19, 28]: below the threshold
pKd [20, 28]: below the threshold
pKd [21, 28]: below the threshold
pKd [22, 28]: below the threshold
pKd [23, 28]: below the threshold
pKd [24, 28]: below the threshold
pKd [25, 28]: below the threshold
pKd [26, 28]: below the threshold

DYSNLRETDI [ADRA1D, P25100]
pKd [1, 27]: 5.57
pKd [2, 27]: below the threshold
pKd [3, 27]: 4.39
pKd [4, 27]: 3.84
pKd [5, 27]: 4.51
pKd [6, 27]: 4.35
pKd [7, 27]: below the threshold
pKd [8, 27]: below the threshold
pKd [9, 27]: below the threshold
pKd [10, 27]: below the threshold
pKd [11, 27]: below the threshold
pKd [12, 27]: below the threshold
pKd [13, 27]: 4.03
pKd [14, 27]: below the threshold
pKd [15, 27]: below the threshold
pKd [16, 27]: below the threshold
pKd [17, 27]: below the threshold
pKd [18, 27]: below the threshold
pKd [19, 27]: 3.6
pKd [20, 27]: below the threshold
pKd [21, 27]: below the threshold
pKd [22, 27]: below the threshold
pKd [23, 27]: 4.1
pKd [24, 27]: below the threshold
pKd [25, 27]: 4.74
pKd [26, 27]: below the threshold

GVHSNDHSVV [LPAR1, Q92633]
pKd [1, 27]: 3.69
pKd [2, 27]: 3.63
pKd [3, 27]: 4.42
pKd [4, 27]: below the threshold
pKd [5, 27]: below the threshold
pKd [6, 27]: 3.74
pKd [7, 27]: below the threshold
pKd [8, 27]: below the threshold
pKd [9, 27]: below the threshold
pKd [10, 27]: 4.26
pKd [11, 27]: below the threshold
pKd [12, 27]: below the threshold
pKd [13, 27]: 3.54
pKd [14, 27]: 3.62
pKd [15, 27]: below the threshold
pKd [16, 27]: below the threshold
pKd [17, 27]: below the threshold
pKd [18, 27]: below the threshold
pKd [19, 27]: below the threshold
pKd [20, 27]: below the threshold
pKd [21, 27]: below the threshold
pKd [22, 27]: below the threshold
pKd [23, 27]: below the threshold
pKd [24, 27]: below the threshold
pKd [25, 27]: 3.99
pKd [26, 27]: below the threshold

WAKEKQHTRL [SLC17A1, Q14916]
pKd [1, 27]: 3.82
pKd [2, 27]: below the threshold
pKd [3, 27]: below the threshold
pKd [4, 27]: below the threshold
pKd [5, 27]: below the threshold
pKd [6, 27]: 3.82
pKd [7, 27]: below the threshold
pKd [8, 27]: below the threshold
pKd [9, 27]: below the threshold
pKd [10, 27]: below the threshold
pKd [11, 27]: 4.47
pKd [12, 27]: 3.82
pKd [13, 27]: 4.84
pKd [14, 27]: below the threshold
pKd [15, 27]: below the threshold
pKd [16, 27]: 3.85
pKd [17, 27]: below the threshold
pKd [18, 27]: below the threshold
pKd [19, 27]: below the threshold
pKd [20, 27]: below the threshold
pKd [21, 27]: below the threshold
pKd [22, 27]: below the threshold
pKd [23, 27]: below the threshold
pKd [24, 27]: below the threshold
pKd [25, 27]: 4.27
pKd [26, 27]: below the threshold
